One assay deals with gH/gL on EBV virions (Epstein Barr virus, UniProt P03231 19-706; P03212 23-137). Description: cell-based or functional assay.
Assay [1] addresses T1, EBV gH/gL heterodimer, recombinant ectodomain (Epstein Barr virus).
T1 construct: range 19-679;range 24-137
Kind of assay: BLI kinetics, pH 5.0, ligand AMMO1 Mab, analyte gH/gL; KA M^-1 x10^7. In general terms: Biolayer interferometry detects binding as a change in optical thickness at a sensor tip.

The target of assay [2] is T1, EBV gH/gL heterodimer, recombinant …. Kind of assay: BLI kinetics, pH 7.4, ligand AMMO1 Mab, analyte gH/gL; kon (1/Ms) x10^5.
The target is the same in assay [3]. Kind of assay: BLI kinetics, pH 7.4, ligand AMMO1 Mab, analyte gH/gL; KA M^-1 x10^7.
Assay [4] deals with gH T62A/gL, recombinant ectodomain (Epstein Barr virus).
The target in assay [5] is T1, EBV gH/gL heterodimer, recombinant …. Description: BLI kinetics, pH 7.4, ligand AMMO1 Mab, analyte gH/gL; KD M x10^-9.
The target is the same in assay [6]. Description: BLI kinetics, pH 5.0, ligand AMMO1 Mab, analyte gH/gL; kon (1/Ms) x10^5.
For assay [7] the target is unchanged. Description: BLI kinetics, pH 5.0, ligand AMMO1 Mab, analyte gH/gL; KD M x10^-9.
For assay [8] the target is unchanged. Description: BLI kinetics, pH 7.4, ligand AMMO1 Mab, analyte gH/gL; koff (1/s) x10^-3.
Assay [9] has the same target. Kind of assay: BLI kinetics, pH 5.0, ligand AMMO1 Mab, analyte gH/gL; koff (1/s) x10^-3.

Data on one molecule can be found in US20200164059A1 (FRED HUTCHINSON CANCER RESEARCH CENTER, published 2020).

B1: AMMO1 (antibody, V domains shown)
VH: QVQLVQSGADVKKPGASVKVSCKASGYTFIHFGISWVRQAPGQGLEWMGWIDTNNGNTNYAQSLQGRVTMTTDTSTGTAYMELRSLSTDDTAVYFCARALEMGHRSGFPFDYWGQGVLVTVSP
VL: SYELTQPPSVSVAPGQRATITCGGHNIGAKNVHWYQQKPGQAPVLVIQYDSDRPSGIPERFSGSNSGSTATLTISRVEAGDEADYYCQVWDSGRGHPLYVFGGGTKVTVL
notes: also called WT AMMO1; anti-gH/gL MAb AMMO1
Broadly, the kon is the rate constant with which the complex forms. In general, Kd refers to the free concentration of one partner at which half of the binding sites on the other are occupied at equilibrium, for simple one-to-one binding. What is called koff is a measure of how fast the partners let go of each other. As to B1, the “neutralization of B95.8/F EBV infection of B (Raji) cells, IC50” value in the assay with gH/gL on EBV virions was found to be 0.16 µg/mL. Moreover, the results for the Ka in assay [1], in [3] and in assay [4] were 7.84e+09 M⁻¹, 8.63e+09 M⁻¹ and 5.85e+09 M⁻¹, respectively. The figures for the kon in [2], in [4] and in assay [6] were 334000 M⁻¹ s⁻¹, 789000 M⁻¹ s⁻¹ and 573000 M⁻¹ s⁻¹, respectively. Also, the Kd in assay [4] was found to be 0.17 nM; in assay [5], 0.12 nM; in assay [7] it was 0.13 nM. In addition, the koff in assay [4] is 0.000135 s⁻¹; in assay [8], 3.87e-05 s⁻¹; in assay [9] it was 7.31e-05 s⁻¹.
